Results as given in the supplement of paper PMC12042874.
± gives the uncertainty stated by the source.

Test: amyloid nucleation score (Sup35N fusion, yeast selection) (log enrichment); library NNK2; higher = more nucleation; inactive = no reads after selection
Method in brief: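 DiMSum was used to calculate nucleation scores as log enrichment of output over input reads, centred on the mode score of non-aggregating sequences. Sequences with fewer than 100 input reads were not scored. Input and output came from Illumina sequencing of plasmid inserts in psi-negative yeast expressing peptides of 20 random codons fused to Sup35N, induced 24 hours with 100 μM copper sulfate and then grown 7 days at 30°C on medium lacking adenine and uracil.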

Question: For DVAYRVVDKRIQRVAKCMYM, which amyloid nucleation score is on record?
Answer: The amyloid nucleation score was -0.194 ± 0.6.

Question: With FLSRSQRCMIG as the substance, how does the amyloid nucleation score read?
Answer: Its amyloid nucleation score is 0.313 ± 0.64.

Question: With KRSTNWKDC as the substance, how does the amyloid nucleation score read?
Answer: The amyloid nucleation score was -1.07 ± 0.64.

Question: For SSGGIDQFGRESISHHWLC, which amyloid nucleation score is on record?
Answer: Its amyloid nucleation score is -0.858 ± 0.76.

Question: For VVKRARLSWPFIARKYTSMV, which amyloid nucleation score is on record?
Answer: Its amyloid nucleation score is 0.116 ± 0.4.

Question: For YMASWVSSAGSFV, which amyloid nucleation score is on record?
Answer: Its amyloid nucleation score is 1.05 ± 0.29.

Question: For RSLSSPSRKLKLTNLWI, which amyloid nucleation score is on record?
Answer: Its amyloid nucleation score is -0.226 ± 1.1.

Question: Which amyloid nucleation score does the source give for LSLALDRQELAVHLFVLTCY here?
Answer: Its amyloid nucleation score is 0.829 ± 0.57.

Question: For VDISNFTVCRHAIKDLTFRV, which amyloid nucleation score is on record?
Answer: Its amyloid nucleation score is 0.149 ± 0.41.

Question: For KIWMSLHLRELRLC, which amyloid nucleation score is on record?
Answer: The amyloid nucleation score was 0.569 ± 0.12.

Question: Which amyloid nucleation score does the source give for LSQQSSMLKDRITDICGDLL here?
Answer: The amyloid nucleation score was 1.4 ± 0.33.

Question: With LVLLSFGSV as the substance, how does the amyloid nucleation score read?
Answer: The amyloid nucleation score was -0.127 ± 1.

Question: Which amyloid nucleation score does the source give for YGGPGRNKGPNSCRSTATSV here?
Answer: The amyloid nucleation score was 1.02 ± 0.17.

Question: For CMYVLFLRWLNQAM, which amyloid nucleation score is on record?
Answer: Its amyloid nucleation score is “inactive”.

Question: Which amyloid nucleation score does the source give for NSRTGTLREVHYLPDST here?
Answer: Its amyloid nucleation score is 5.1 ± 0.054.

Question: For RVPFFVGAG, which amyloid nucleation score is on record?
Answer: Its amyloid nucleation score is -0.271 ± 0.74.

Question: With CYVNWGCNGEISGIVFDSMK as the substance, how does the amyloid nucleation score read?
Answer: The amyloid nucleation score was “inactive”.

Question: For FINKIKVRLNLMSGSANRLL, which amyloid nucleation score is on record?
Answer: The amyloid nucleation score was 4.57 ± 0.11.

Question: With FMECVSNNRMELVAGNEKGC as the substance, how does the amyloid nucleation score read?
Answer: Its amyloid nucleation score is 0.082 ± 0.27.

Question: For TFGTSFKYFMSWLIDRCCYL, which amyloid nucleation score is on record?
Answer: The amyloid nucleation score was -0.836 ± 1.1.

Question: With KSCSMMFILWVTAGMDRWGH as the substance, how does the amyloid nucleation score read?
Answer: Its amyloid nucleation score is 6.25 ± 0.09.

Question: For REDNPRADTCMAYGV, which amyloid nucleation score is on record?
Answer: The amyloid nucleation score was 1.14 ± 0.35.

Question: With LLYIDLVVHVFQSGSSGRLL as the substance, how does the amyloid nucleation score read?
Answer: The amyloid nucleation score was 2.79 ± 0.083.

Question: With TNAIYRGVLGSMDQGT as the substance, how does the amyloid nucleation score read?
Answer: Its amyloid nucleation score is “inactive”.

Question: Which amyloid nucleation score does the source give for ICRLFVR here?
Answer: Its amyloid nucleation score is -0.454 ± 0.31.

Question: Which amyloid nucleation score does the source give for PSFSFVMTLVNFRPDFLSMH here?
Answer: The amyloid nucleation score was -1.2 ± 0.78.

Question: For CFFRKMPHCRLTTWRRVASI, which amyloid nucleation score is on record?
Answer: Its amyloid nucleation score is 0.675 ± 0.25.

Question: Which amyloid nucleation score does the source give for ANLFVCMDDM here?
Answer: Its amyloid nucleation score is -0.051 ± 0.23.

Question: Which amyloid nucleation score does the source give for MFVYADFSHILEKRGHTGNR here?
Answer: Its amyloid nucleation score is 2.64 ± 0.15.

Question: For FFLLAGVLDWAYGWYYIVWK, which amyloid nucleation score is on record?
Answer: Its amyloid nucleation score is 0.147 ± 1.1.

Question: For SVVEEKIGEFTWSWDTDSAN, which amyloid nucleation score is on record?
Answer: The amyloid nucleation score was 0.568 ± 0.66.

Question: Which amyloid nucleation score does the source give for MDSDNFLQYYSRYFNEVAFC here?
Answer: The amyloid nucleation score was -0.145 ± 0.79.

Question: For IMIILLVSVTKSNFTPQSMC, which amyloid nucleation score is on record?
Answer: The amyloid nucleation score was 2.26 ± 0.23.

Question: Which amyloid nucleation score does the source give for ESFARFIAM here?
Answer: Its amyloid nucleation score is -0.033 ± 0.55.

Question: For GVSSNGSLCWCVFMKVPAVC, which amyloid nucleation score is on record?
Answer: The amyloid nucleation score was 2.98 ± 0.078.

Question: For QGAVLTL, which amyloid nucleation score is on record?
Answer: Its amyloid nucleation score is -1.12 ± 0.76.

Question: For WCSKKPDEFLTINAFRYWED, which amyloid nucleation score is on record?
Answer: Its amyloid nucleation score is -0.736 ± 0.34.

Question: Which amyloid nucleation score does the source give for IVCITTSNVLTCDIDGNITK here?
Answer: The amyloid nucleation score was 4.27 ± 0.044.

Question: With NGLESYDFTQLY as the substance, how does the amyloid nucleation score read?
Answer: The amyloid nucleation score was -0.667 ± 0.64.

Question: For TGLTH, which amyloid nucleation score is on record?
Answer: The amyloid nucleation score was -0.737 ± 0.54.

Question: With ITISLLLGHYDCCCVTLLQE as the substance, how does the amyloid nucleation score read?
Answer: The amyloid nucleation score was 7.263 ± 0.027.

Question: With NTSQDG as the substance, how does the amyloid nucleation score read?
Answer: Its amyloid nucleation score is 5.15 ± 0.087.

Question: Which amyloid nucleation score does the source give for SRLPLTSMTNSHSWA here?
Answer: Its amyloid nucleation score is 0.363 ± 0.43.

Question: With VDCGFRRLFVFTNSIYCVCR as the substance, how does the amyloid nucleation score read?
Answer: The amyloid nucleation score was 5.321 ± 0.053.

Question: With MGFRGIHMRVCAFLRWYNNY as the substance, how does the amyloid nucleation score read?
Answer: The amyloid nucleation score was -0.709 ± 0.33.

Question: With WYWHPCTIFL as the substance, how does the amyloid nucleation score read?
Answer: The amyloid nucleation score was 5.46 ± 0.038.

Question: For NLSCNLFVSFWYGW, which amyloid nucleation score is on record?
Answer: The amyloid nucleation score was 4.67 ± 0.068.

Question: With IYIAKW as the substance, how does the amyloid nucleation score read?
Answer: The amyloid nucleation score was -0.656 ± 0.33.

Question: With GVVNLTD as the substance, how does the amyloid nucleation score read?
Answer: Its amyloid nucleation score is 3.01 ± 0.061.

Question: For FFVPYDSYTYHLILFLKQLV, which amyloid nucleation score is on record?
Answer: Its amyloid nucleation score is -0.535 ± 0.53.

Question: With GINISVLNMRQLFRLSAGSH as the substance, how does the amyloid nucleation score read?
Answer: Its amyloid nucleation score is 4.36 ± 0.086.

Question: With CYARSASGVAIAVRRKRGVQ as the substance, how does the amyloid nucleation score read?
Answer: Its amyloid nucleation score is 1.23 ± 0.18.

Question: With GECLDR as the substance, how does the amyloid nucleation score read?
Answer: Its amyloid nucleation score is 2.83 ± 0.075.

Question: Which amyloid nucleation score does the source give for KFNGPKIVYFISTSMVLLVS here?
Answer: Its amyloid nucleation score is -0.406 ± 1.1.

Question: For GMSTRQFKLLPGCREVMRAG, which amyloid nucleation score is on record?
Answer: The amyloid nucleation score was 0.571 ± 0.64.

Question: Which amyloid nucleation score does the source give for EVSSGTCFGTS here?
Answer: The amyloid nucleation score was 0.084 ± 0.42.

Question: With SAIRLMGG as the substance, how does the amyloid nucleation score read?
Answer: Its amyloid nucleation score is 5.378 ± 0.048.

Question: With PMFVSLVKFTYWSCTVFLGA as the substance, how does the amyloid nucleation score read?
Answer: The amyloid nucleation score was -0.582 ± 0.38.

Question: With WWWPSVWTCRM as the substance, how does the amyloid nucleation score read?
Answer: Its amyloid nucleation score is -0.716 ± 0.78.

Question: Which amyloid nucleation score does the source give for VHRWSDTYTTTYM here?
Answer: The amyloid nucleation score was -0.535 ± 0.33.

Question: Which amyloid nucleation score does the source give for VSVHAVGLSYCMICFSLQNG here?
Answer: Its amyloid nucleation score is -0.611 ± 0.23.

Question: For SSRCFSVYSDIMYGTFLS, which amyloid nucleation score is on record?
Answer: Its amyloid nucleation score is “inactive”.

Question: For NLWVCFWSDSCFT, which amyloid nucleation score is on record?
Answer: Its amyloid nucleation score is 8.089 ± 0.045.

Question: For FDWISVRGTGWFCLRWWLYV, which amyloid nucleation score is on record?
Answer: The amyloid nucleation score was “inactive”.

Question: With LITTSMYLWSVHSFVLHMDD as the substance, how does the amyloid nucleation score read?
Answer: The amyloid nucleation score was 0.545 ± 0.4.
